Legend:
MxPPO [1] = assay: PPO enzyme activity of purified MBP-fused MxPPO wild type and variants; type: biochemical, Myxococcus xanthus; settings: PPO enzyme activity of purified MxPPO protein, relative to wild type
Protocol: Thus, PPO proteins of wild type and variants were expressed as fused to MBP and were used for experiments.
The following process for purification of PPO protein was performed in a 4° C. cold room. […] The column was washed with 3 column volumes of buffer and the presence of protein in the washing solution was examined. When the protein was no longer detected, the washing procedure was terminated. Then, the MBP-PPO protein was eluted with approximately 2 column volumes of buffer containing 20 mM maltose. The protein concentration of each eluent was determined and the elution was stopped when the protein was no longer detected. Ten microliter of each fraction was investigated for protein quantification and SDS-PAGE analysis. The highly pure fractions of PPO protein variants were used for the enzyme assay.
Since protoporphyrinogen IX, a substrate of PPO protein, was not commercially available, it was chemically synthesized in the laboratory. Overall process was performed in dark under nitrogen stream. […] of protoporphyrin IX was dissolved in 20 ml of 20% (v/v) EtOH, and stirred under dark condition for 30 minutes. The obtained protoporphyrin IX solution was put into a 15 ml screw tube in an amount of 800 μl, and flushed with nitrogen gas for 5 minutes. To this, 1.5 g of sodium amalgam was added and vigorously shaken for 2 minutes. The lid was opened to exhaust hydrogen gas in the tube. Thereafter, the lid was closed and incubated for 3 minutes. The protoporphyrinogen IX solution was filtered using syringe and cellulose membrane filter. To 600 μl of the obtained protoporphyrinogen IX solution, approximately 300 μl of 2M MOPS [3-(N-morpholino) propanesulfonic acid] was added to adjust pH to 8.0. To determine the enzyme activity of PPO protein, a reaction mixture was prepared with the following composition (based on 10 ml): 50 mM Tris-Cl (pH 8.0); 50 mM NaCl; 0.04% (v/v) Tween 20; 40 mM glucose (0.072 g); 5 units glucose oxidase (16.6 mg); and 10 units catalase (1 μl).
Hundred and eighty microliters of a reaction mixture […] were placed in 96 well plates and 20 μl of purified PPO proteins were added. After 50 μl of the mineral oil was layered, the reaction was initiated by adding the substrate, protoporphyrinogen IX solution, to a final concentration of 50 μM. The reaction proceeded at room temperature for 30 min and the fluorescence of protoporphyrin IX was measured using Microplate reader (Sense, Hidex) (excitation: 405 nm; emission: 633 nm). To calculate the PPO enzyme activity, the protoporphyrinogen IX solution was kept open in the air overnight to oxidize the solution. To this, 2.7 N HCl was added, and the absorbance at 408 nm was measured. A standard curve was generated using standard protoporphyrin IX, and PPO activity was measured by calibration of protoporphyrin IX using the standard curve of protoporphyrin IX.
Activities of variants were presented relatively compared to that of wild type.

MxPPO [2] = assay: Herbicide tolerance test of MxPPO wild type and variants in PPO-deficient E. coli BT3(ΔPPO), growth on herbicide-containing LB agar; type: cell-based, Myxococcus xanthus; settings: relative to MxPPO WT, light; for Herbicide tolerance, flumioxazin: up to 400 μM (FIGS. 15-17); for Herbicide tolerance, sulfentrazone: up to 1000 μM (FIGS. 18-20)
Protocol: Then, the extent of tolerance was evaluated.

Molecule	Activity (%) (MxPPO [1])	Herbicide tolerance, flumioxazin (MxPPO [2])	Herbicide tolerance, sulfentrazone (MxPPO [2])	Herbicide tolerance, tiafenacil (MxPPO [2]; 2000 μM (FIG. 14))
A170C + I311M + M365I: MxPPO (SEQ ID NO: 3) variant (protein, Synthetic (Protoporphyrinogen IX oxidase (MxPPO) of Myxococcus xanthus)) MHHMPRTTGMNVAVVGGGISGLAVAHHLRSRGTDAVLLESSARLGGAVGTHALAGYLVEQGPNSFLDREPATRALAAALNLEGRIRAADPAAKRRYVYTRGRLRSVPASPPAFLASDILPLGARLRVAGELFSRRAPEGVDESLAAFGRRHLGHRATQVLLDAVQTGIYCGDVEQLSVAATFPMLVKMEREHRSLILGAIRAQKAQRQAALPAGTAPKLSGALSTFDGGLQVLIDALAASLGDAAHVGARVEGLAREDGGWRLIIEEHGRRAELSVAQVVLAAPAHATAKLLRPLDDALAALVAGIAYAPMAVVHLGFDAGTLPAPDGFGFLVPAEEQRRMLGAIHASTTFPFRAEGGRVLYSCIVGGARQPGLVEQDEDALAALAREELKALAGVTARPSFTRVFRWPLGIPQYNLGHLERVAAIDAALQRLPGLHLIGNAYKGVGLNDCIRNAAQLADALVAGNTSHAP	69%	++ (10-99 fold higher tolerance)	+ (1-9 fold higher tolerance)	–
I168C + M365I: MxPPO (SEQ ID NO: 3) variant (protein, Synthetic (Protoporphyrinogen IX oxidase (MxPPO) of Myxococcus xanthus)) MHHMPRTTGMNVAVVGGGISGLAVAHHLRSRGTDAVLLESSARLGGAVGTHALAGYLVEQGPNSFLDREPATRALAAALNLEGRIRAADPAAKRRYVYTRGRLRSVPASPPAFLASDILPLGARLRVAGELFSRRAPEGVDESLAAFGRRHLGHRATQVLLDAVQTGCYAGDVEQLSVAATFPMLVKMEREHRSLILGAIRAQKAQRQAALPAGTAPKLSGALSTFDGGLQVLIDALAASLGDAAHVGARVEGLAREDGGWRLIIEEHGRRAELSVAQVVLAAPAHATAKLLRPLDDALAALVAGIAYAPIAVVHLGFDAGTLPAPDGFGFLVPAEEQRRMLGAIHASTTFPFRAEGGRVLYSCIVGGARQPGLVEQDEDALAALAREELKALAGVTARPSFTRVFRWPLGIPQYNLGHLERVAAIDAALQRLPGLHLIGNAYKGVGLNDCIRNAAQLADALVAGNTSHAP	45%	+ (1-9 fold higher tolerance)	+ (1-9 fold higher tolerance)	–
I311M + L332T + M365V: MxPPO (SEQ ID NO: 3) variant (protein, Synthetic (Protoporphyrinogen IX oxidase (MxPPO) of Myxococcus xanthus)) MHHMPRTTGMNVAVVGGGISGLAVAHHLRSRGTDAVLLESSARLGGAVGTHALAGYLVEQGPNSFLDREPATRALAAALNLEGRIRAADPAAKRRYVYTRGRLRSVPASPPAFLASDILPLGARLRVAGELFSRRAPEGVDESLAAFGRRHLGHRATQVLLDAVQTGIYAGDVEQLSVAATFPMLVKMEREHRSLILGAIRAQKAQRQAALPAGTAPKLSGALSTFDGGLQVLIDALAASLGDAAHVGARVEGLAREDGGWRLIIEEHGRRAELSVAQVVLAAPAHATAKLLRPLDDALAALVAGIAYAPMAVVHLGFDAGTLPAPDGFGFTVPAEEQRRMLGAIHASTTFPFRAEGGRVLYSCVVGGARQPGLVEQDEDALAALAREELKALAGVTARPSFTRVFRWPLGIPQYNLGHLERVAAIDAALQRLPGLHLIGNAYKGVGLNDCIRNAAQLADALVAGNTSHAP	55%	+++ (100-999 fold higher tolerance)	++ (10-99 fold higher tolerance)	+ (1-9 fold higher tolerance)
